Patent US20220002403A1

Molecular target: human ILT4 haplotype 5 expressed on mouse 3A9 T cells (human) (UniProt Q8N423)
Assay: cell-based or functional assay

Chain of human ILT4 haplotype 5 expressed on mouse 3A9 T cells (human) (Q8N423 other isoform, or with tags, fused parts or gaps): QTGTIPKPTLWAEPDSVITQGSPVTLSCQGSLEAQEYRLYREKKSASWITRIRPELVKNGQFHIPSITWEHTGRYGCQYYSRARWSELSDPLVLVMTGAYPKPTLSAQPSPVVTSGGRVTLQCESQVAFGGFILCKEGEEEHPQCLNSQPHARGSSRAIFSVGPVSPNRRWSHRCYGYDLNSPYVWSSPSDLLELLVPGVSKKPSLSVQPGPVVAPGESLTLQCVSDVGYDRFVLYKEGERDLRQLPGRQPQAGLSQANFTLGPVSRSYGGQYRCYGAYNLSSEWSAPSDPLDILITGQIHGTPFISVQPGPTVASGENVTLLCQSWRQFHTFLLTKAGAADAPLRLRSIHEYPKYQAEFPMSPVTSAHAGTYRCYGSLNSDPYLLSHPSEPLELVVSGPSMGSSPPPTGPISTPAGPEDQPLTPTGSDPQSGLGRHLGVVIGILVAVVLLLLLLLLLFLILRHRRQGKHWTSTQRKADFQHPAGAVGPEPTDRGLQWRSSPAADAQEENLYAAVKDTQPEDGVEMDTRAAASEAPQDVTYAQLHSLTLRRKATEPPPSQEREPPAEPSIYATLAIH

B1: 1E1(G4) (antibody, human IgG4 S228P, lambda, V domains shown)
VH: EVQLQQWGAGLLKPSETLSLTCAVYGGSFSGYYWSWIRQPPGKGLEWIGEINHAGSTNYNPSLKSRVTISVDTSKNQFSLKLSSVTAADTAVYYCARLPTRWVTTRYFDLWGRGTLVTVSS
VL: ESVLTQPPSVSGAPGQRVTISCTGSSSNIGAGYDVHWYQQLPGTAPKLLIYGDSNRPSGVPDRFSVSKSGASASLAITGLQAEDEADYYCQSFDNSLSAYVFGGGTQLTVLG
- EC50 (IL-2 Repression Assay: rescue of IL-2 release from anti-CD3 stimulated ILT4 3A9 T cell transfectants, ELISA): 0.43 µg/mL
